Assay results taken from patent US20220251193A1 (RAMOT AT TEL AVIV UNIVERSITY, published 2022).

T1: Sema3A(65) (human (by the filing's definition of …, UniProt Q14563 21-555, limits assumed))
T1 construct: also called recombinant pure Sema3a protein; 65 kDa furin cleavage
T1 sequence: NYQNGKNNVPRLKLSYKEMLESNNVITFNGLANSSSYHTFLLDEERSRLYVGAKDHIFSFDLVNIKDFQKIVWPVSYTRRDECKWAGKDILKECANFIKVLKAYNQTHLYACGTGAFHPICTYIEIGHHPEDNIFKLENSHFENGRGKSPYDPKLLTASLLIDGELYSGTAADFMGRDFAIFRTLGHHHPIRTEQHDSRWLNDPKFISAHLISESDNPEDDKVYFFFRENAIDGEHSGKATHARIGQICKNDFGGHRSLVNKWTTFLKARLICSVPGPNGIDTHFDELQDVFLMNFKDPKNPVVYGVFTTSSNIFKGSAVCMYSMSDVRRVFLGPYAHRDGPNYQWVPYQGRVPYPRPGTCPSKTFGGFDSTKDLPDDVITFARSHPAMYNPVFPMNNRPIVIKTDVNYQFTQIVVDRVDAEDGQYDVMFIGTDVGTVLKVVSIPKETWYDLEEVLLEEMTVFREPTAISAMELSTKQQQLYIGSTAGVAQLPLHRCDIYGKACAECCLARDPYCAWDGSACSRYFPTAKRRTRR


Molecular target: T1, Sema3A(65)
Assay: ELISA on coated antigen (5 µg/ml), Fab in 2 fold dilutions from 1 µM, detection with HRP goat anti human H+L
Experimental: FIGS. 1A-B are graphs illustrating purification and ELISA binding evaluation of anti Sema3a isolated Fabs for estimated Kd values. The analyzed antibody was added in 2 fold dilution series starting at 1 μM to the antigen (Sema3A) coated wells (5 μg/ml). Bound antibodies were detected with horseradish peroxidase (HRP)-conjugated goat anti human H+L secondary antibodies. Fab 3H4 (FIG. 1A), L4B8 and L4E6 (FIG. 1B) are presented.

EC50 (read off the curve) [nM] | Binder
~200 | Fab L4E6 (Fab, V domains shown, C-terminal His tag on the Fd fragment) VH: EVQLLESGGGLVQPGGSLRLSCAASGFTFSNFVMNWVRQAPGKGLEWVSRINTDGTSTNYADSVTGRFTISRDNSKNTLYLQMNSLRAEDTAVYYCARDYPLRRLMYYYYGMDVWGQGTLVTVSS VL: DIVLTQSPGTLSLSPGERATLSCRASQTISSNLAWYQQKPGQAPRLLIYGASSRATGIPDRFSGSGSGTDFTLTISRLEPEDFAVYYCQQYSWSPRVYSFGQGTKLEIK
~100 | Fab L4B8 (Fab, V domains shown, C-terminal His tag on the Fd fragment) VH: EVQLLESGGGLVQPGGSLRLPCAASGFTVGLYNINWVRQAPGKGLAWVSTISGSGLNTYYSDPVKGRFTISRDNSKNTLYLQMNSLRAEDTAVYYCARDEDTYAFNWGQGTLVTVSS VL: DIVLTQSPGTLSLSPGERATLSCRASQSVSSSYLAWYQQKPGQAPRLLIYGASTRAPGIPDRFSGSGSGTDFTLTISRLEPEDFAVYYCHQRGSGDTFGPGTKVEIK
